The record followed here is article PMC8641065 (The New phytologist, 2021).

The experiment deals with T1, HY5-S36A-GFP (Arabidopsis thaliana, UniProt O24646 1-168, S36A).
T1 sequence (looked up): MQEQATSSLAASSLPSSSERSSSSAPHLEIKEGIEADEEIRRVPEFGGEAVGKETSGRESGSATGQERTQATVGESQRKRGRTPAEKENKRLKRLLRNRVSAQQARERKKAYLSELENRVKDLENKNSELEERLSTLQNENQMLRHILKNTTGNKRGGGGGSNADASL
Nature of the experiment: co-IP.

B1: COP1 (constitutive photomorphogenic1), endogenous (natural protein, UniProt P43254 1-675, looked up)
chain: MEEISTDPVVPAVKPDPRTSSVGEGANRHENDDGGSGGSEIGAPDLDKDLLCPICMQIIKDAFLTACGHSFCYMCIITHLRNKSDCPCCSQHLTNNQLYPNFLLDKLLKKTSARHVSKTASPLDQFREALQRGCDVSIKEVDNLLTLLAERKRKMEQEEAERNMQILLDFLHCLRKQKVDELNEVQTDLQYIKEDINAVERHRIDLYRARDRYSVKLRMLGDDPSTRNAWPHEKNQIGFNSNSLSIRGGNFVGNYQNKKVEGKAQGSSHGLPKKDALSGSDSQSLNQSTVSMARKKRIHAQFNDLQECYLQKRRQLADQPNSKQENDKSVVRREGYSNGLADFQSVLTTFTRYSRLRVIAEIRHGDIFHSANIVSSIEFDRDDELFATAGVSRCIKVFDFSSVVNEPADMQCPIVEMSTRSKLSCLSWNKHEKNHIASSDYEGIVTVWDVTTRQSLMEYEEHEKRAWSVDFSRTEPSMLVSGSDDCKVKVWCTRQEASVINIDMKANICCVKYNPGSSNYIAVGSADHHIHYYDLRNISQPLHVFSGHKKAVSYVKFLSNNELASASTDSTLRLWDVKDNLPVRTFRGHTNEKNFVGLTVNSEYLACGSETNEVYVYHKEITRPVTSHRFGSPDMDDAEEEAGSYFISAVCWKSDSPTMLTANSQGTIKVLVLAA
B1: the “fold of COP1 co-immunoprecipitated, against the HY5-S36D-GFP line” value was determined as 4 fold.
